# In IntAct's records for PubMed 22187461:
# B1: 26S proteasome non-ATPase regulatory subunit 11 (Drosophila melanogaster (Fruit fly)), Q7KLV9-1 (parent)
# chain: MAGATLFERAQALSSVNREEQDSSLLNKLVRDQEGAENDEERIRIKEQGILQQGELYKQEGKAKELADLIKVTRPFLSSISKAKAAKLVRSLVDMFLDMDAGTGIEVQLCKDCIEWAKQEKRTFLRQSLEARLIALYFDTALYTEALALGAQLLRELKKLDDKNLLVEVQLLESKTYHALSNLPKARAALTSARTTANAIYCPPKVQGALDLQSGILHAADERDFKTAFSYFYEAFEGFDSVDSVKALTSLKYMLLCKIMLGQSDDVNQLVSGKLAITYSGRDIDAMKSVAEASHKRSLADFQAALKEYKKELAEDVIVQAHLGTLYDTMLEQNLCRIIEPYSRVQVAHVAESIQLPMPQVEKKLSQMILDKKFSGILDQGEGVLIVFEETPVDKTYERVLETIQSMGKVVDTLYQKAKKLS
# partner: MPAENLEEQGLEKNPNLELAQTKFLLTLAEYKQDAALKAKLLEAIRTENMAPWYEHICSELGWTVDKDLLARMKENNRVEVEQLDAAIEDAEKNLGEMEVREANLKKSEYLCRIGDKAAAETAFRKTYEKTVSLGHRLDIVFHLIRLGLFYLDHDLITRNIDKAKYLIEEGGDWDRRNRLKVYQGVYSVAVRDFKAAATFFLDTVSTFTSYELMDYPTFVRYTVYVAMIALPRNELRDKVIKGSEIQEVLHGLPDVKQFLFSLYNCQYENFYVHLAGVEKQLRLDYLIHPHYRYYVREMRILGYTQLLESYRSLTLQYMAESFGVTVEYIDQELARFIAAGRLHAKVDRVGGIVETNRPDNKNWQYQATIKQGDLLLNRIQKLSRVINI
# Variants of: B1
# Settings: with psmd6_drome Rpn7, Q9V3G7
row,effect of a mutation on the interaction,Variant
1,disrupting interaction strength,S366K;I369A;L370A
